Results taken from PMC5789952 (Proceedings of the National Academy of Sciences of the …, 2017).
Where a chain is given by its changes, count along the chain named. Names may count otherwise.

Tests used:
STAT2_(133–738) = target: T1, STAT2_(133–738) (mouse, UniProt Q9WVL2 133-738); assay: SEC
T1 sequence (looked up): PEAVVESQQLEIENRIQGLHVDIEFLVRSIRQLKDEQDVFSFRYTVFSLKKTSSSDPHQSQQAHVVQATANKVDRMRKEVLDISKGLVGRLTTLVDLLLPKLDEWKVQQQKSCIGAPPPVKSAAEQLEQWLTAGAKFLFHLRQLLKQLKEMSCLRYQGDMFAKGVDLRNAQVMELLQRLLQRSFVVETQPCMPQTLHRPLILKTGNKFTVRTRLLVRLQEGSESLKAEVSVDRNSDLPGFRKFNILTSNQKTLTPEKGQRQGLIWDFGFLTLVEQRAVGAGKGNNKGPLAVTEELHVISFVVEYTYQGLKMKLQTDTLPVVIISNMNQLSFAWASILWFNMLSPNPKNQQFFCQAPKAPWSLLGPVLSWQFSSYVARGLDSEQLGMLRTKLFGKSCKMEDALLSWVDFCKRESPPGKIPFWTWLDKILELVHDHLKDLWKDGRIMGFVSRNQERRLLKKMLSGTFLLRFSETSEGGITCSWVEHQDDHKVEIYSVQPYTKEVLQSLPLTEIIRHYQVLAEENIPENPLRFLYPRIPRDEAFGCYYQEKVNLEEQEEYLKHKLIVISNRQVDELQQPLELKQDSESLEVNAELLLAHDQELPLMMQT

[1] = target: T2, IRF9–IAD_(182–385) E347A E348A (crystallised form in the complex) (mouse, UniProt Q61179 182-385, E347A | E348A); assay: crystal structure
T2 sequence (looked up): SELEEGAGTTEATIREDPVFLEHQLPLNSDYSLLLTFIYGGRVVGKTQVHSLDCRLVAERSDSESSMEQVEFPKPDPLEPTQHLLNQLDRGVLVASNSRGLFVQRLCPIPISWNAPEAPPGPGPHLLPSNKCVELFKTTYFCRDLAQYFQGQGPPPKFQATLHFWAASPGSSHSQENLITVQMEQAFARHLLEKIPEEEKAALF

STAT1_(136–713) = target: T3, STAT1_(136–713) (mouse, UniProt P42225 136-713); assay: ITC
T3 sequence (looked up): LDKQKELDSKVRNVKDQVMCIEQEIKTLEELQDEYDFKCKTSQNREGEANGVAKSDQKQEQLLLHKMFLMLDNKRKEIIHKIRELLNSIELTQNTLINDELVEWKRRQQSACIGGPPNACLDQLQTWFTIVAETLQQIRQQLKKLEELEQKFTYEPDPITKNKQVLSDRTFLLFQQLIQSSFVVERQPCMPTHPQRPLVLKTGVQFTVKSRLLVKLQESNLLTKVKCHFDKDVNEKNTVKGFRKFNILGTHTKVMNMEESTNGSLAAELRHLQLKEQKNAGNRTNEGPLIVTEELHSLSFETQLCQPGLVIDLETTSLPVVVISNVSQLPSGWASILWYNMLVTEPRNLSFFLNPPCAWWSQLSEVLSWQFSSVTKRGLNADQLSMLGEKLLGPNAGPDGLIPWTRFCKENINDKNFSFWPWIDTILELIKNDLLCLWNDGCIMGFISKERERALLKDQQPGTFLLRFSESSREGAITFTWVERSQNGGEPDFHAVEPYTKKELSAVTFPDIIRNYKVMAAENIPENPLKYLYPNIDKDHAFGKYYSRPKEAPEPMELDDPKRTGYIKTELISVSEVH

STAT2_(133–679) = target: T4, STAT2_(133–679) (mouse, UniProt Q9WVL2 133-679); assay: ITC
T4 sequence (looked up): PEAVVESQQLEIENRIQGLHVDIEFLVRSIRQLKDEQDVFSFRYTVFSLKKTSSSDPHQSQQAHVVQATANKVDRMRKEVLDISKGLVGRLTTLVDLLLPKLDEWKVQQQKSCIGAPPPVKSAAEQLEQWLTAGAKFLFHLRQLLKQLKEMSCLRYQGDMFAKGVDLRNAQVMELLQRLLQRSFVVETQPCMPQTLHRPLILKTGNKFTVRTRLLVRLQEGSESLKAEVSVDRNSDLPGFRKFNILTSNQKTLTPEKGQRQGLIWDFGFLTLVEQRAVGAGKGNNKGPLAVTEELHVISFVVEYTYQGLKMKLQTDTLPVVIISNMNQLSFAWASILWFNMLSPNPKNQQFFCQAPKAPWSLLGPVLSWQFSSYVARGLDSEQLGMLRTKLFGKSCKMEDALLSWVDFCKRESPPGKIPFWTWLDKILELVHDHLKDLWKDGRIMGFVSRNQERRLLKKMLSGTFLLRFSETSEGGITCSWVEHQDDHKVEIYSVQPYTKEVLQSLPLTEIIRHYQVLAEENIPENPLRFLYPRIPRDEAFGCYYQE

STAT2_(133–679) V171E = target: T5, STAT2_(133–679) V171E (mouse, UniProt Q9WVL2 133-679, V171E); assay: ITC
T5 sequence (looked up): T4 sequence (looked up) with V39E

STAT1_(136–713) E169V = target: T6, STAT1_(136–713) E169V (mouse, UniProt P42225 136-713, E169V); assay: ITC
T6 sequence (looked up): T3 sequence (looked up) with E34V

B1: full-length IRF9 (IRF9FL) (natural protein, mouse, UniProt Q61179 1-399, looked up)
chain: MASGKVRCTRKLRSWIVEQVESGHFPGVCWDDAAKTMFRIPWKHAGKQDFREDQDAAIFKAWALFKEKHKDGDIGHPAVWKTRLRCALNKSSEFEEVPERGRMDVAEPYKVYRILPAGTLPNQPRNQKSPCKRSISCVSPEREENMENGRTNGVVNHSDSGSNIGGGGNGSNRSDSNSNCNSELEEGAGTTEATIREDPVFLEHQLPLNSDYSLLLTFIYGGRVVGKTQVHSLDCRLVAERSDSESSMEQVEFPKPDPLEPTQHLLNQLDRGVLVASNSRGLFVQRLCPIPISWNAPEAPPGPGPHLLPSNKCVELFKTTYFCRDLAQYFQGQGPPPKFQATLHFWEESPGSSHSQENLITVQMEQAFARHLLEKIPEEEKAALFLLQHTEQSPSALGH
binding result (STAT2_(133–738)): binds

B2: STAT2–CCD_(133–315) Q242A K243A (crystallised form) (domain or fragment, mouse, UniProt Q9WVL2 133-315, looked up)
chain: PEAVVESQQLEIENRIQGLHVDIEFLVRSIRQLKDEQDVFSFRYTVFSLKKTSSSDPHQSQQAHVVQATANKVDRMRKEVLDISKGLVGRLTTLVDLLLPKLDEWKVQQAASCIGAPPPVKSAAEQLEQWLTAGAKFLFHLRQLLKQLKEMSCLRYQGDMFAKGVDLRNAQVMELLQRLLQRS
binding result [1]: binds

B3: IRF9–IAD_(182–385) (domain or fragment, mouse, UniProt Q61179 182-385, looked up)
chain: T2 sequence (looked up) with A166E, A167E
Kd (STAT1_(136–713)): 5000 nM | Kd (STAT2_(133–679)): 10 nM | Kd (STAT2_(133–679) V171E): 2500 nM | Kd (STAT1_(136–713) E169V): 116 nM

B4: IRF9–IAD IF3 (L326A, F330A, I376A) (domain or fragment, mouse, UniProt Q61179 182-385, looked up)
chain: T2 sequence (looked up) with L145A, F149A, A166E, A167E, I195A
Kd (STAT2_(133–679)): 17 nM

B5: IRF9–IAD IF2 (R324E, D325K, Q331E, Q333E, P335S) (domain or fragment, mouse, UniProt Q61179 182-385, looked up)
chain: T2 sequence (looked up) with R143E, D144K, Q150E, Q152E, P154S, A166E, A167E
Kd (STAT2_(133–679)): 11 nM
